Measurements: patent US9624482B2, “Thermophilic cellobiohydrolase” (Sandia Corporation, priority 2009, dated 2017)
Entries after “also recorded” stand apart in the source; their conditions may differ.

B1: CBH protein: Protein encoded by the YP_001179883 gene of Caldicellulosiruptor saccharolyticus, domains GH10, CBM3, GH5 (SEQ ID NO:2) (protein, listed as Caldicellulosiruptor saccharolyticus)
chain: MKRNLFRIVSRVVLIAFIASISLVGAMSYFPVETQAAPDWSIPSLCESYKDDFMIGVAIPARCLSNDTDKRMVLKHFNSITAENEMKPESLLAGQTSTGLSYRFSTADAFVDFASTNKIGIRGHTLVWHNQTPDWFFKDSNGQRLSKDALLARLKQYIYDVVGRYKGKVYAWDVVNEAIDENQPDSYRRSTWYEICGPEYIEKAFIWAHEADPNAKLFYNDYNTEISKKRDFIYNMVKNLKSKGIPIHGIGMQCHINVNWPSVSEIENSIKLFSSIPGIEIHITELDMSLYNYGSSENYSTPPQDLLQKQSQKYKEIFTMLKKYKNVVKSVTFWGLKDDYSWLRSFYGKNDWPLLFFEDYSAKPAYWAVLEASGVTTSSPTPTPTPTVTVTPTPTPTPTPTVTATPTPTPTPVSTPATGGQIKVLYANKETNSTTNTIRPWLKVVNSGSSSIDLSRVTIRYWYTVDGERAQSAVSDWAQIGASNVTFKFVKLSSSVSGADYYLEIGFKSGAGQLQPGKDTGEIQIRFNKSDWSNYNQGNDWSWLQSMTSYGENEKVTAYIDGVLVWGQEPSGATPAPTMTVAPTATPTPTLSPTVTPTPAPTQTAIPTPTLTPNPTPTSSIPDDTNDDWLYVSGNKIVDKDGRPVWLTGINWFGYNTGTNVFDGVWSCNLKDTLAEIANRGFNLLRVPISAELILNWSQGIYPKPNINYYVNPELEGKNSLEVFDIVVQTCKEVGLKIMLDIHSIKTDAMGHIYPVWYDEKFTPEDFYKACEWITNRYKNDDTIIAFDLKNEPHGKPWQDTTFAKWDNSTDINNWKYAAETCAKRILNINFNLLIVIEGIEAYPKDDVTWTSKSSSDYYSTWWGGNLRGVRKYPINLGKYQNKVVYSPHDYGPSVYQQPWFYPGFTKESLLQDCWRPNWAYIMEENIAPLLIGEWGGHLDGADNEKWMKYLRDYIIENHIHHTFWCFNANSGDTGGLVGYDFTTWDEKKYSFLKPALWQDSQGRFVGLDHKRPLGTNGKNINITTYYNNNEPEPVPASK
B2: Caldicellulosiruptor saccharolyticus (Csac) GH5 cellobiohydrolase domain, construct C (CsacF7-4), amino acids 507-1039 of Csac CBH, SEQ ID NO:3 … (protein)
chain: MFKSGAGQLQPGKDTGEIQIRFNKSDWSNYNQGNDWSWLQSMTSYGENEKVTAYIDGVLVWGQEPSGATPAPTMTVAPTATPTPTLSPTVTPTPAPTQTAIPTPTLTPNPTPTSSIPDDTNDDWLYVSGNKIVDKDGRPVWLTGINWFGYNTGTNVFDGVWSCNLKDTLAEIANRGFNLLRVPISAELILNWSQGIYPKPNINYYVNPELEGKNSLEVFDIVVQTCKEVGLKIMLDIHSIKTDAMGHIYPVWYDEKFTPEDFYKACEWITNRYKNDDTIIAFDLKNEPHGKPWQDTTFAKWDNSTDINNWKYAAETCAKRILNINPNLLIVIEGLEAYPKDDVTWTSKSSSDYYSTWWGGNLRGVRKYPINLGKYQNKVVYSPHDYGPSVYQQPWFYPGFTKESLLQDCWRPNWAYLMEENIAPLLIGEWGGHLDGADNEKWMKYLRDYIIENHIHHTFWCFNANSGDTGGLVGYDFTTWDEKKYSFLKPALWQDSQGRFVGLDHKRPLGTNGKNINITTYYNNNEPEPVPASK
notes: C-terminal V5 and His6 tags (pDEST42); E. coli BL21(DE3) Star; purified
B3: Caldicellulosiruptor saccharolyticus (Csac) CBM3-GH5 cellobiohydrolase, construct E (CsacF7-6), amino acids 374-1039 of Csac CBH, SEQ ID NO:4 … (protein)
chain: MGVTTSSPTPTPTPTVTVTPTPTPTPTPTVTATPTPTPTPVSTPATGGQIKVLYANKETNSTTNTIRPWLKVVNSGSSSIDLSRVTIRYWYTVDGERAQSAVSDWAQIGASNVTFKFVKLSSSVSGADYYLEIGFKSGAGQLQPGKDTGEIQIRFNKSDWSNYNQGNDWSWLQSMTSYGENEKVTAYIDGVLVWGQEPSGATPAPTMTVAPTATPTPTLSPTVTPTPAPTQTAIPTPTLTPNPTPTSSIPDDTNDDWLYVSGNKIVDKDGRPVWLTGINWFGYNTGTNVFDGVWSCNLKDTLAEIANRGFNLLRVPISAELILNWSQGIYPKPNINYYVNPELEGKNSLEVFDIVVQTCKEVGLKIMLDIHSIKTDAMGHIYPVWYDEKFTPEDFYKACEWITNRYKNDDTIIAFDLKNEPHGKPWQDTTFAKWDNSTDINNWKYAAETCAKRILNINPNLLIVIEGLEAYPKDDVTWTSKSSSDYVSTWWGGNLRGVRKYPINLGKYQNKVVYSPHDYGPSVYQQPWFYPGFTKELLQDCWRPNWAYLMEENIAPLLIGEWGGHLDGADNEKWMKYLRDYIIENHIHHTFWCFNANSGDTGGLVGYDFTTWDEKKYSFLKPALWQDSQGRFVGLDHKRPLGTNGKNINITTYYNNNEPEPVPASK
notes: as for B2

Assays:
GH5 = GH5 (Caldicellulosiruptor saccharolyticus, UniProt A4XIF7); assay: Product inhibition by cellobiose of pNPC hydrolysis; type: biochemical; settings: 5 mM pNPC, optimal condition; read-out: IC50 of cellobiose on CBH activity
Method: (§1) To examine the catalytic activity of GH5 in detail, the hydrolysis of nitrophenol from 4-nitrophenyl-β-D-cellobioside (pNPC) and 4-nitrophenyl-β-D-glucopyranoside (pNPG) are measured. Under the optimum reaction condition that is previously found (80° C. and pH 5.5), pNPC was hydrolyzed by both CBM3-GH5 and GH5. […] The product inhibition by cellobiose is examined by adding unlabeled cellobiose into reaction mixtures containing 5 mM of pNPC. The IC50 inhibition constant for cellobiose on the catalytic activity of GH5 is found at c.a. 30 mM. The kinetics of pNPC hydrolysis by CBM3-GH5 and GH5 are compared to see whether the CBM3 domain can influence the catalytic activity of the GH5 domain on a soluble substrate.
(§2) GH5 and CBM3-GH5 (constructs C and E, respectively) are tested to determine the influence of product and ionic strength on CBH activity.

[1] = Effect of IL concentration on CBH activity, CMC substrate, DNS; type: biochemical; settings: EMIM acetate
Method: GH5 and CBM3-GH5 (constructs C and E, respectively) are tested to determine the effect of IL concentration on the CBH activity of GH5. Carboxymethyl cellulose (CMC) is used as the substrate for the enzymatic reaction, and the amount of released products containing reducing ends is measured by DNS. The CBH activity remains fairly highly from 0% to more than 20% EMIM acetate. From 25% EMIM acetate the CBH activity starts to decrease and the CBH activity diminished at about 60% EMIM acetate.

[2] = Enzymatic activity on CMC under different pH and temperature, DNS assay; type: biochemical
Method: To determine the optimum conditions for the enzymatic activity of GH5 on CMC under different pH and temperature ranges was measured by DNS assay. The maximum activity is observed at 80° C. and at pH between 4.7 and 5.5; the optimum conditions of the GH5 activity on CMC is at a higher temperature and at a lower pH than the optimum growth conditions of C. sac (70° C., at neutral pH). In addition, Csac GH5 is also active on 4-nitrophenyl β-D-cellobioside, but not active on 4-nitrophenyl β-D-glucopyranoside (up to 1 hr incubation). Therefore, GH5 is a cellobiohydrolase/exoglucanase that produces cellobiose.

[3] = CMCase activity of constructs; type: biochemical
Text: (§3) CBH is a modular cellulolytic gene from a hyperthermophilic and anaerobic bacterium Caldicellulosiruptor saccharolyticus (C. Sac), which contains the glycoside hydrolase family 10 (GH10), carbohydrate binding module family 3 (CBM3), and glycoside hydrolase family 5 (GH5) domains in a single open reading frame (ORF). We have expressed, purified, and characterized the function of the recombinant GH5 with and without CBM3 domain. The nucleotide sequence of the ORF is codon-optimized and then synthesized for protein expression in E. coli. The translated products contain c-terminal V5 epitope and His (×6) tags from the pDEST42 vector sequence. The recombinant proteins CBM3-GH5 and GH5 are expressed in BL21(DE3)Star E. coli and purified by affinity (HisTrap FF) and ion-exchange (HiTrap Q) chromatography methods. The average yields are 4 mg and 3 mg per liter, respectively.

[4] = Hydrolysis of pNPG (β-glucosidase activity); type: biochemical; settings: 80° C. and pH 5.5, up to one hour
Method: as §1

[5] = Enzyme digestion of solid substrates, products by HPAEC; type: biochemical; settings: 30 mg substrate, 10 μg protein, 80° C., pH 5.5, 17 hours
Method: The effect of CBM3 on the cellobiohydrolase activity on solid substrates by GH5 is tested on Avicel and corn stover. These solid substrates are pretreated with the ionic liquid 1-ethyl-3-methylmidazolium acetate ([C2mim][OAc]). […] Enzyme digestion is performed by mixing 30 mg of substrate and 10 μg of protein in 0.5 mL volume and incubating at 80° C. and pH 5.5 for 17 hours. GH5 and CBM3-GH5 are able to produce more cellobiose and glucose from pre-treated Avicel than untreated Avicel.

[6] = Hydrolysis of pNPC, kinetics by Eadie-Hofstee plots; type: biochemical; settings: 80° C. and pH 5.5
Method: as §1

[7] = substrate: O=[N+]([O-])c1ccc(O[C@@H]2O[C@H](CO)[C@@H](O[C@@H]3O[C@H](CO)[C@@H](O)[C@H](O)[C@H]3O)[C@H](O)[C@H]2O)cc1; assay: hydrolysis kinetics of 4-nitrophenyl-β-D-cellobioside (pNPC) by GH5 (Eadie-Hofstee plots); type: biochemical, Caldicellulosiruptor saccharolyticus
Text: as §3, §1

[8] = CBH (cellobiohydrolase or exoglucanase) activity of constructs; type: biochemical
Text: as §3

[9] = Influence of ionic strength (NaCl) on CBH activity; type: biochemical; settings: 2.3 M NaCl
Method: as §2

[10] = substrate: O=[N+]([O-])c1ccc(O[C@@H]2O[C@H](CO)[C@@H](O[C@@H]3O[C@H](CO)[C@@H](O)[C@H](O)[C@H]3O)[C@H](O)[C@H]2O)cc1; assay: hydrolysis kinetics of 4-nitrophenyl-β-D-cellobioside (pNPC) by CBM3-GH5 (Eadie-Hofstee plots); type: biochemical, Caldicellulosiruptor saccharolyticus; settings: other: pNPC, 80° C., pH 5.5, Eadie-Hofstee plot
Text: as §3, §1

[11] = other: 80° C., 50 mM MES, pH 5.5 (general description of the enzyme)
[12] = other: pNPC, 80° C., pH 5.5, Eadie-Hofstee plot

Chain of GH5 (A4XIF7 entry or part of it): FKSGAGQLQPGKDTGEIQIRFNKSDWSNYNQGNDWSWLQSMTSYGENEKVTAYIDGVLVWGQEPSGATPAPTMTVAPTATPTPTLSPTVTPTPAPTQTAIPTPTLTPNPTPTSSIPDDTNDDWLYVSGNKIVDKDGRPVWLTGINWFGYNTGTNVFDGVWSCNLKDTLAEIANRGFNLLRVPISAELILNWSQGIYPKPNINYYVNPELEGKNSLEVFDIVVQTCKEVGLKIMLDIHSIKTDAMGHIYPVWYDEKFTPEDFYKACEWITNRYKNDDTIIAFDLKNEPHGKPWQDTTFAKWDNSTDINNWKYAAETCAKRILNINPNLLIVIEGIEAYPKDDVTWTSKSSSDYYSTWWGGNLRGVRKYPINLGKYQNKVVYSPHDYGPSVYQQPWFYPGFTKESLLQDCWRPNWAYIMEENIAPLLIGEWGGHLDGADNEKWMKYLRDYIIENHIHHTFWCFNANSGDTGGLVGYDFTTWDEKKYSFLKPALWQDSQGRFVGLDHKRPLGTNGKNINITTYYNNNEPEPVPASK

Molecule	IC50 (GH5) [mM]	IL concentration up to which the enzyme is active/tolerant [1]	Temperature of maximum (optimal) activity [2]	CMCase activity [3]	Activity on pNPG [4]	Sugar released from solid substrates [5]	IL concentration at which CBH activity diminished [1]	IL concentration from which CBH activity starts to decrease [1] [%]	Activity on pNPC [6]	Km [7, 11] [µM]	Vmax [7, 11] [µmol/min/mg]	Km [7, 12] [µM]	Vmax [7, 12] [µmol/min/mg]	kcat [7, 12] [s⁻¹]	CBH activity (cellobiohydrolase or exoglucanase) [8]	pH of maximum (optimal) activity [2]	Residual CBH activity [9]	Km [10] [µM]	Vmax [10] [µmol/min/mg]	kcat [10] [s⁻¹]
O=C[C@H](O)[C@@H](O)[C@H](O[C@@H]1O[C@H](CO)[C@@H](O)[C@H](O)[C@H]1O)[C@H](O)CO [cellobiose]	~30	–	–	–	–	–	–	–	–	–	–	–	–	–	–	–	–	–	–	–
B1	–	up to 50%	about 80 °C	–	–	–	–	–	–	–	–	–	–	–	–	–	–	–	–	–
B2	–	up to 50%	80 °C	Yes	not active; also recorded: not hydrolyzed	can produce both cellobiose and glucose; also recorded: cellobiose is the predominant sugar released	about 60%	25	active; also recorded: hydrolyzed	2200	0.71	2400	0.62	0.817	Yes	4.7-5.5	–	–	–	–
B3	–	–	–	Yes	not hydrolyzed	cellobiose is the predominant sugar released; also recorded: produced more cellobiose than GH5	about 60%	25	hydrolyzed	–	–	–	–	–	Yes	–	at least 80%	2200	0.71	0.767
